# Test results: patent US20070054332A1, “Syndecan 1 ectodomain inhibits cancer” (priority 2005, published 2007)
# “Also recorded” adds a separate entry of the source.
# T1: αvβ5 integrin (Mus musculus, UniProt O70309+P43406)
# T1 construct: B82L mouse fibroblasts expressing this integrin; endogenous in cells; host or cells: B82L mouse fibroblasts
# T1 sequence (P43406 31-1044): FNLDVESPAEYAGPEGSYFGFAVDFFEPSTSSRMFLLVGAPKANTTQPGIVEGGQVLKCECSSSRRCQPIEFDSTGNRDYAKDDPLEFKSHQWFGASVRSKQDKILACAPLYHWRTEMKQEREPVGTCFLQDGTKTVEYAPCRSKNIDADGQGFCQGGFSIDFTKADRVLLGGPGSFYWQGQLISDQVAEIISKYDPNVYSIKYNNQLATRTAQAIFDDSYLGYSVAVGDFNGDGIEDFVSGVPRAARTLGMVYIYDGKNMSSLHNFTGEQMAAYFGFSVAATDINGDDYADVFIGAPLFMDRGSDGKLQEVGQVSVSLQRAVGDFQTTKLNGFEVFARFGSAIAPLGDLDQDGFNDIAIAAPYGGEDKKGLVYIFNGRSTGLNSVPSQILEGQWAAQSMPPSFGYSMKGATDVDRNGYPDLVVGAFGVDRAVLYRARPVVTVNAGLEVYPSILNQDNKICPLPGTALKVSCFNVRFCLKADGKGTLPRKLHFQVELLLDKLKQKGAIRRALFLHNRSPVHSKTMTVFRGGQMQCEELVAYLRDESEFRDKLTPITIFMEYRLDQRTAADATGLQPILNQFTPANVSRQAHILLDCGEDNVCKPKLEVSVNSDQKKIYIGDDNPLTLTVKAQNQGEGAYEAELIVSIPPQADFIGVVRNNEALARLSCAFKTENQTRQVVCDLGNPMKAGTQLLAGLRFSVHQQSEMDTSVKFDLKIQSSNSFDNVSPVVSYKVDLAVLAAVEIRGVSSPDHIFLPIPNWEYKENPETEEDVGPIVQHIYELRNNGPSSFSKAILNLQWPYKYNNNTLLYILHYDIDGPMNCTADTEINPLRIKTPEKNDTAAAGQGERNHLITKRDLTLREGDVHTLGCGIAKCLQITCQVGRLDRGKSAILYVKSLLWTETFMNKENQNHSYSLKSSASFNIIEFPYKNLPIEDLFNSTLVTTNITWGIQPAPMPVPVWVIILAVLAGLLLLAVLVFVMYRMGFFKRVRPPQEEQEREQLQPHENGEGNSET
# T1 sequence (O70309 24-798): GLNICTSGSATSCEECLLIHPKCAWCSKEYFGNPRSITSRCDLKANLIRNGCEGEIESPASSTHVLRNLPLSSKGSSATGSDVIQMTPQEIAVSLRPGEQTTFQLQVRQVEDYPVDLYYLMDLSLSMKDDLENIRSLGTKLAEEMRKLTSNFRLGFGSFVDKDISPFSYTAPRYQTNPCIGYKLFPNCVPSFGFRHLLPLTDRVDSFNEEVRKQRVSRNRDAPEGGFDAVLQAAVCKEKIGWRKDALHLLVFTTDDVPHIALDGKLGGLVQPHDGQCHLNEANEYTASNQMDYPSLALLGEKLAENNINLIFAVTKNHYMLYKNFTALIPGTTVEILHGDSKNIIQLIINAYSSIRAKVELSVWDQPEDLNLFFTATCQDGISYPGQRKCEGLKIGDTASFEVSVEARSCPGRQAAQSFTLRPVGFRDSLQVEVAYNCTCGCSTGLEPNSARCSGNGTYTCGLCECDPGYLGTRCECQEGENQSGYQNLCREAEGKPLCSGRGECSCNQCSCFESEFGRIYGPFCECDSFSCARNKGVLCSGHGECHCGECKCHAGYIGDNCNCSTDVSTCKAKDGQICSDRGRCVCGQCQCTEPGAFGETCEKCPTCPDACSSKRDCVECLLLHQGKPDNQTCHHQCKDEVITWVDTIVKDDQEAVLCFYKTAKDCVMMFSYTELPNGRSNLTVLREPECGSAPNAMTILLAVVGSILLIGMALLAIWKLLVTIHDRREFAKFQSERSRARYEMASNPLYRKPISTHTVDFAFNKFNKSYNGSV
# T2: Sdc1 and the αvβ5 integrin complex (Mus musculus, UniProt O70309+P43406)
# T2 construct: immunoprecipitation of Sdc1 from the B82L cells co-precipitates the integrin with the Sdc1; endogenous in cells; host or cells: B82L mouse fibroblasts
# T2 sequence (P43406 31-1044): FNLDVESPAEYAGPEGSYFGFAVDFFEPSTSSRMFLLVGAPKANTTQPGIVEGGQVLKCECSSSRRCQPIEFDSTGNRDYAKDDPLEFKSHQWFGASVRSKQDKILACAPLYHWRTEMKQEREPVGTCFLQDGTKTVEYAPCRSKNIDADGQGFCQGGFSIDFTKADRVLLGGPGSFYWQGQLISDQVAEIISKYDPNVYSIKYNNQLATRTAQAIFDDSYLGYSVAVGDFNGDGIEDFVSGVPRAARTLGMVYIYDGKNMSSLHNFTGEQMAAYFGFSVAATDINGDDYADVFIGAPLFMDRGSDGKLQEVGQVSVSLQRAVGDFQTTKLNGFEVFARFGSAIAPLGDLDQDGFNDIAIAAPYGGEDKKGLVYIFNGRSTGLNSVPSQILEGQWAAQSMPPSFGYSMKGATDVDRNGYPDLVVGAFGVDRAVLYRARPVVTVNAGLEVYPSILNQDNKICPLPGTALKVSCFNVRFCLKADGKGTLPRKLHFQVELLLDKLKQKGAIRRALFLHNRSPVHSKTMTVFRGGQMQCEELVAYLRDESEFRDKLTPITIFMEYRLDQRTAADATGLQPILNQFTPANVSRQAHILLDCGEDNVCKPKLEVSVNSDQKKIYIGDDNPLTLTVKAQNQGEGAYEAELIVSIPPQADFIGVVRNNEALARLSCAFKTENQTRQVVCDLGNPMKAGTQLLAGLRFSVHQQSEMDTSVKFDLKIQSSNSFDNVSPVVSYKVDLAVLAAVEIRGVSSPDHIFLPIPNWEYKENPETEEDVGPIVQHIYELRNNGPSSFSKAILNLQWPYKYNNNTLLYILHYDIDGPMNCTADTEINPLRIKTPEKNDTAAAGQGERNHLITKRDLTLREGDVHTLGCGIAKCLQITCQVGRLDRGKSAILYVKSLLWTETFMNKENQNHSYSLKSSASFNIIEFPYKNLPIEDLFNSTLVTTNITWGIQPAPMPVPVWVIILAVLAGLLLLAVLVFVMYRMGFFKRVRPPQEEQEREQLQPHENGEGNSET
# T2 sequence (O70309 24-798): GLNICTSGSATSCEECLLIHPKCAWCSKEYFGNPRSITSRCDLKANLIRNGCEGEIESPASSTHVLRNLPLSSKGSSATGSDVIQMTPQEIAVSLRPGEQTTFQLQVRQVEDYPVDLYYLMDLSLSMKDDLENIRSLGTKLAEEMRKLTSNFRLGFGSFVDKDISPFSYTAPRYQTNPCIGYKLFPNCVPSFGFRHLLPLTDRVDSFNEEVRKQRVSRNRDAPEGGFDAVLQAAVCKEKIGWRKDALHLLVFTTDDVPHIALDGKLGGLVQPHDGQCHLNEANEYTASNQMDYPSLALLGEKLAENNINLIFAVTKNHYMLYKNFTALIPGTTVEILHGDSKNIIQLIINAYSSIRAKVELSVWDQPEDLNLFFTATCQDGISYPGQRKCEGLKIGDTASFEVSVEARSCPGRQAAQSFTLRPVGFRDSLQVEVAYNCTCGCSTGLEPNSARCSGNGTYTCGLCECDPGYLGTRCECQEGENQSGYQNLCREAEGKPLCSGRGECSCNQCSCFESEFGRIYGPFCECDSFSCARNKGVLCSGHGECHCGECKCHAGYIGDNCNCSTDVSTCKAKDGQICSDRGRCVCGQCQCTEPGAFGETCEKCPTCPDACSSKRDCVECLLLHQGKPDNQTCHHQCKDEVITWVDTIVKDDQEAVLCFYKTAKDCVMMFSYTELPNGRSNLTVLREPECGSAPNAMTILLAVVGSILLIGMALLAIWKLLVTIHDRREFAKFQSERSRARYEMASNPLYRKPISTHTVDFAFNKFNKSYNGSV
# Experiments:
# [1] = test system: S115 mouse mammary tumor cells; conditions: nanomolar concentrations; Mali et al. (1994); cited from earlier work
# [2] = test system: MDA-MB-231 cell; conditions: soluble ectodomain, dose-dependent; cited from earlier work
# [3] = test system: MDA-MB-231 cell spreading; conditions: soluble ectodomain, dose-dependent; cited from earlier work
# [4] = molecular target: T1, αvβ5 integrin; conditions: B82L mouse fibroblasts, competing concentrations; McQuade et al., 2006; cited from earlier work
# [5] = molecular target: T2, Sdc1 and the αvβ5 integrin complex; conditions: B82L cells, competing concentration; McQuade et al., 2006; cited from earlier work
# [6] = test system: MDA-MB-231 human mammary carcinoma cells; test: Rescue of proliferation in siRNA-treated cells by mouse Sdc1 constructs; type: cell-based; conditions: MDA-MB-231, endogenous human Sdc1 silenced, mouse construct expressed
# Experimental: Full length mouse Sdc1 (FLmS1),GPI linked mS1ED (GPImS1ED) or a construct of mouse Sdc1 in which the heparan sulfate attachment sites are mutated (TDM) were stably transfected into MDA-MB-231 cells and selected with 1.5 mg/ml G418 (Gibco BRL). These stable transfectants were maintained in culture in the presence of G418 and were checked periodically for constant expression of FLmS 1, GPImS1ED or TDM. Cells expressing these transgenes at similar levels were sorted by FACS before the experiments. Cells transfected with the empty pcDNA3 vector (NEO) were used as control.
# Silencing of human Sdc1 with specific short interfering RNA (siRNA). Purified, duplexed siRNAs specific for human Sdc1 were purchased from Ambion (Austin, Tex.). The siRNA sequences targeting human Sdc1 were: hsdc1-1, […]; hsdc1-2, […]; hsdc1-3, […]. […]
# Assessment of Cell Growth. To quantify cell proliferation, cells grown in matrigel (3D culture) or on top of matrigel (2D culture) were released from the matrigel by 45-60 min incubation at 37° C. with Dispase (BD Biosciences), washed with Dulbecco's modified Eagle's medium (DMEM) 2-3 times and resuspended into 400 ul fresh DMEM for cell counting by hemocytometer. Triplicate wells, replicated in at least three experiments, were used for the quantification.
molecule,measurement,setting,value
"free ectodomain: free ectodomain from culture medium of syndecan 1-transfected S115 or normal murine mammary gland cells, bearing heparan sulfate (Mali et al., 1994) (protein, UniProt P18828 23-255, looked up, extracellular domain heparan sulfate) extracellular domain: QIVAVNVPPEDQDGSGDDSDNFSGSGTGALPDTLSRQTPSTWKDVWLLTATPTAPEPTSSNTETAFTSVLPAGEKPEEGEPVLHVEAEPGFTARDKEKEVTTRPRETVQLPITQRASTVRVTTAQAAVTSHPHGGMQPGLHETSAPTAPGQPDHQPPRVEGGGTSVIKEVVEDGTANQLPAGEGSGEQDFTFETSGENTAVAAVEPGLRNQPPVDEGATGASQSLLDRKEVLG",growth of S115 tumor cells,[1],suppress the growth
"Soluble murine Sdc1 ectodomain: soluble murine Sdc1 ectodomain (Beauvais and Rapraeger, 2003) (protein, UniProt P18828 23-255, looked up, extracellular domain) extracellular domain: QIVAVNVPPEDQDGSGDDSDNFSGSGTGALPDTLSRQTPSTWKDVWLLTATPTAPEPTSSNTETAFTSVLPAGEKPEEGEPVLHVEAEPGFTARDKEKEVTTRPRETVQLPITQRASTVRVTTAQAAVTSHPHGGMQPGLHETSAPTAPGQPDHQPPRVEGGGTSVIKEVVEDGTANQLPAGEGSGEQDFTFETSGENTAVAAVEPGLRNQPPVDEGATGASQSLLDRKEVLG",inhibition in short-term migration assays,[2],competitively inhibits
same,inhibition of MDA-MB-231 cell spreading,[3],competitively inhibits
"recombinant Sdc1 ectodomain: recombinant Sdc1 ectodomain added at competing concentrations (McQuade et al., 2006) (protein, UniProt P18828 23-255, looked up, extracellular domain) extracellular domain: QIVAVNVPPEDQDGSGDDSDNFSGSGTGALPDTLSRQTPSTWKDVWLLTATPTAPEPTSSNTETAFTSVLPAGEKPEEGEPVLHVEAEPGFTARDKEKEVTTRPRETVQLPITQRASTVRVTTAQAAVTSHPHGGMQPGLHETSAPTAPGQPDHQPPRVEGGGTSVIKEVVEDGTANQLPAGEGSGEQDFTFETSGENTAVAAVEPGLRNQPPVDEGATGASQSLLDRKEVLG",αvβ5 integrin activity,[4],inactivated
same,co-precipitation of the integrin with Sdc1,[5],disrupted
"soluble syndecan-4 ectodomain: soluble syndecan-4 ectodomain, specificity control (protein, UniProt P31431 19-145, looked up, extracellular domain, soluble syndecan-4 ectodomain, specificity control) extracellular domain: ESIRETEVIDPQDLLEGRYFSGALPDDEDVVGPGQESDDFELSGSGDLDDLEDSMIGPEVVHPLVPLDNHIPERAGSGSQVPTEPKKLEENEVIPKRISPVEESEDVSNKVSMSSTVQGSNIFERTE",inhibition of MDA-MB-231 cell spreading,[3],fails to compete
"mouse Sdc1: Full length mouse Sdc1 stably transfected into MDA-MB-231 cells (protein, UniProt P18828 1-311, looked up, full-length, Full length mouse Sdc1 stably transfected into MDA-MB-231 cells) MRRAALWLWLCALALRLQPALPQIVAVNVPPEDQDGSGDDSDNFSGSGTGALPDTLSRQTPSTWKDVWLLTATPTAPEPTSSNTETAFTSVLPAGEKPEEGEPVLHVEAEPGFTARDKEKEVTTRPRETVQLPITQRASTVRVTTAQAAVTSHPHGGMQPGLHETSAPTAPGQPDHQPPRVEGGGTSVIKEVVEDGTANQLPAGEGSGEQDFTFETSGENTAVAAVEPGLRNQPPVDEGATGASQSLLDRKEVLGGVIAGGLVGLIFAVCLVAFMLYRMKKKDEGSYSLEEPKQANGGAYQKPTKQEEFYA",rescue of proliferation in siRNA-treated cells,[6],Rescue of proliferation; also recorded: rescues proliferation
